From patent US20250019428A1 (Janssen / Centocor, published 2025)

T1: human lymphotoxin (human, UniProt P01374 35-205, limits assumed)
T1 sequence (looked up): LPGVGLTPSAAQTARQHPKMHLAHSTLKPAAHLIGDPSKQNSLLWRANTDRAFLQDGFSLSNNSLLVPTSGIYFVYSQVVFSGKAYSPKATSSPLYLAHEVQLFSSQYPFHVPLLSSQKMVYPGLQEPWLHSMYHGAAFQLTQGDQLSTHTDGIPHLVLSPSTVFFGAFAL

B1: GenTNV148.26.12 (antibody, human IgG1, kappa, V domains shown)
VH: QVQLVESGGGVVQPGRSLRLSCAASGFIFSSYAMHWVRQAPGNGLEWVAFMSYDGSNKKYADSVKGRFTISRDNPKNTLYLQMNSLRAEDTAVYYCARDRGIAAGGNYYYYGMDVWGQGTTVTVSS
VL: EIVLTQSPATLSLSPGERATLSCRASQSVYSYLAWYQQKPGQAPRLLIYDASNRATGIPARFSGSGSGTDFTLTISSLEPEDFAVYYCQQRSNWPPFTFGPGTKVDIKR
notes: Hybridoma-derived human IgG1 kappa; also called C420A
B2: GenTNV15.28.11 (antibody, V domains shown)
VH: QVQLVESGGGVVQPGRSLRLSCAASGFTFSSYAMHWVRQAPGKGLEWVAFILYDGSNKKYADSVKGRFTISRDNSKNALYLQMNSLRAEDTAVYYCARDRGVSAGGNYYYYGMDVWGQGTTVTVSS
VL: EIVLTQSPATLSLSPGERATLSCRASQSVSSYLAWYQQKPGQAPRLLIYDASNRATGIPARFSGSGSGTDFTLTISSLEPEDFAVYYCQQRSNWPPFTFGPGTKVDIK
B3: GenTNV86.14.34 (antibody, human IgG1, kappa, V domains shown)
VH: QVQLVESGGGVVQPGRSLRLSCAASGFIFSSYAMHWVRQAPGNGLEWVAFMSYDGSNKKYADSVKGRFTISRDNPKNTLYLQMNSLRAEDTAVYYCARDRGIAAGGNYYYYGMDVWGQGTTVTVSS
VL: EIVLTQSPATLSLSPGERATLSCRASQSVYSYLAWYQQKPGQAPRLLIYDASNRATGIPARFSGSGSGTDFTLTISSLEPEDFAVYYCQQRSNWPPFTFGPGTKVDIKR
notes: The constant region allotype is uncertain, as explained in the m8 note; also called C417A
B4: golimumab (antibody, human IgG1, kappa, V domains shown)
VH: QVQLVESGGGVVQPGRSLRLSCAASGFIFSSYAMHWVRQAPGNGLEWVAFMSYDGSNKKYADSVKGRFTISRDNSKNTLYLQMNSLRAEDTAVYYCARDRGIAAGGNYYYYGMDVWGQGTTVTVSS
VL: EIVLTQSPATLSLSPGERATLSCRASQSVYSYLAWYQQKPGQAPRLLIYDASNRATGIPARFSGSGSGTDFTLTISSLEPEDFAVYYCQQRSNWPPFTFGPGTKVDIKR
modifications: N-glycosylated on asparagine 306
notes: Fully human IgG1 kappa; The commercial material is expressed in Sp2/0 cells; also called SIMPONI

Experiments:
recombinant human TNFα [1] = target: T2, recombinant human TNFα (human, UniProt P01375 77-233, 125I-labeled in the receptor inhibition assay); assay: cell-based or functional assay
recombinant human TNFα [2] = target: T2, recombinant human TNFα; assay: competition: 125I-TNFα binding to coated p55-sf2, hybridoma supernatants
Method: (§1) 50:1 of p55-sf2 at 0.5:g/ml in PBS was added to Optiplates to coat the wells during a one-hour incubation at 37° C. Serial dilutions of the eight TNV cell supernatants were prepared in 96-well round-bottom plates using PBS/0.1% BSA as diluent. […] The mixture was preincubated for one hour at RT. The coated Optiplates were washed to remove unbound p55-sf2 and 50:1 of the ¹²⁵I-TNFα/cell supernatant mixture was transferred to the Optiplates. After 2 hrs at RT, Optiplates were washed three times with PBS-Tween. […] of Microscint-20 was added and the cpm bound determined using the TopCount gamma counter.
A simple binding assay was done to determine whether the eight TNV mAbs contained in hybridoma cell supernatant were capable of blocking TNFα binding to receptor. The concentrations of the TNV mAbs in their respective cell supernatants were first determined by standard ELISA analysis for human IgG.

recombinant human TNFα [3] = target: T2, recombinant human TNFα; assay: competition radioligand assay: mAb in hybridoma supernatant preincubated with 5 ng/ml 125I-TNFα, then binding of 125I-TNFα to plate-coated p55-sf2 counted as cpm bound
Method: Varying amounts of hybridoma cell supernatants containing known amounts of TNV mAb were preincubated with a fixed concentration (5 ng/ml) of ¹²⁵I-labeled TNFα. […] The amount of TNFα that bound to the p55 receptor in the presence of the mAbs was determined after washing away the unbound material and counting using a gamma counter. […] Each sample was tested in duplicate. The results shown are representative of two independent experiments.
as §1
A simple binding assay was done to determine whether the eight TNV mAbs contained in hybridoma cell supernatant were capable of blocking TNFα binding to receptor.

human lymphotoxin = target: T1, human lymphotoxin; assay: not described

Binder | neutralizing TNFα bioactivity (recombinant human TNFα [1]) [fold] | fold better at blocking TNF binding (against TNV118 and TNV14) (recombinant human TNFα [2]) [fold] | IC50 (read off the curve) (recombinant human TNFα [3]) [ng/mL] | binding result (human lymphotoxin)
B1 | 4 | ~4 | ~3 | –
B2 | – | – | ~3 | –
B3 | – | ~4 | – | –
B4 | – | – | – | no binding
